Results as given in US9759725B2, “Treatment-induced damage to the tumor micro-environment promotes cancer therapy resistance through extracellular proteins” (Fred Hutchinson Cancer Research Center, priority 2012, dated 2017).
Entries after “also recorded” stand apart in the source; their conditions may differ.

B1: GDNF: glial cell line-derived neurotrophic factor, purified / human recombinant protein used to stimulate cells (protein)
chain: SPDKQMAVLPRRERNRQAAAANPENSRGKGRRGQRGKNRGCVLTAIHLNVTDLGLGYETKEELIFRYCSGSCDAAETTYDKILKNLSRNRRLVSDKVGQACCRPIAFDDDLSFLDDNLVYHILRKHSAKRCGCI

Key:
Assay type in all cases: cell-based, human
PSC27 fibroblasts = assay: Induction of DDSP factors in PSC27 fibroblasts with mTOR inhibition before ionizing radiation; settings: summary statement
Description: The effects of inhibiting mTOR signaling in the context of genotoxic stress was evaluated. PSC27 fibroblasts were treated with Rapamycin (RAPA) prior to ionizing radiation.

epithelial CaP cells [1] = assay: Proliferation of epithelial CaP cells on GDNF stimulation
Description: (§1) To study the effect GDNF has on tumor growth, we have used two experimental approaches have been used. 1) the effect of purified GDNF on cell proliferation of epithelial cells was analyzed and 2) GDNF over-expressing and secreting human prostate fibroblasts were generated which can also be used in co-culture and in vivo experiments. […] GDNF can act in the absence of RET via GFRA1 activating SFK pathways or through the activation of the RET/GFRA1 complex activating the Ras/Raf/Erk pathway. In our experiments we determined that both pathways were activated in GDNF sensitive cell lines (FIG. 23B). […] The number of epithelial cell lines are being expanded and analyzed after GDNF stimulation. GDNF-activated SFK and Erk pathways can lead to reduced sensitivity to pro-apoptotic treatments or decrease drug sensitivity.

epithelial CaP cells [2] = assay: Src/SFK and Erk pathway activation in CaP cells on GDNF stimulation; settings: GDNF responsive cells
Description: as §1

PSC27 stromal cells = assay: SFK and Ras/Raf/Erk pathway activation in PSC27 stromal cells on GDNF stimulation
Text: Stimulation of epithelial CaP cells with GDNF leads to the activation of the SFK and the Ras/Raf/Erk pathways (FIG. 25). To determine if the same pathways are involved in the pro-proliferative effect on the PSC27 stromal cells, PSC27 cells were stimulated with hrGDNF or conditioned medium from PSC27/iGDNF-V5 cells. […] Additional more downstream effector proteins potentially involved in these effects are also being examined.

| Molecule | suppression of key DDSP proteins including Wnt16B (PSC27 fibroblasts) | proliferation of Ret and GFRA1 negative cells (epithelial CaP cells [1]; after 3 or 5 days) | GDNF concentration of maximum stimulation of proliferation (epithelial CaP cells [1]; in the culture medium) | proliferation of cells expressing GDNF receptors Ret and/or GFRA1 (epithelial CaP cells [1]; increasing concentrations of GDNF) | Src (SFK) and Erk (Ras/Raf/Erk) pathways (epithelial CaP cells [2]) | Ras/Raf/Erk and SFK pathways in stromal cells (PSC27 stromal cells) |
| --- | --- | --- | --- | --- | --- | --- |
| CO[C@H]1C[C@@H]2CC[C@@H](C)[C@@](O)(O2)C(=O)C(=O)N2CCCC[C@H]2C(=O)O[C@H]([C@H](C)C[C@@H]2CC[C@@H](OCCO)[C@H](OC)C2)CC(=O)[C@H](C)/C=C(\C)[C@@H](O)[C@@H](OC)C(=O)[C@H](C)C[C@H](C)/C=C/C=C/C=C/1C [RAD001] | effectively suppress | – | – | – | – | – |
| B1 | – | did not show any increase in proliferation; also recorded: do not show any differences in proliferation | around 10 ng/ml | induced cell proliferation; also recorded: increased proliferation | activated; also recorded: activation | stimulated; also recorded: activation |
